Results: patent US20030190705A1 (SUNOL MOLECULAR, published 2003)
One block for each binder: values may come before it.

Legend:
[1] = molecular target: T1, lipidated recombinant human tissue factor (e.g., Innovin) (human, UniProt P13726 33-295, limits assumed); test: cell-based or functional assay
[2] = molecular target: T1, lipidated recombinant human tissue …; test: cell-based or functional assay; remark: listed apart in the source

inhibition of TF function (PT assay) [1]: ~95%
PT Time (in seconds) at 12.9 nM anti-TF antibody [2]: 18.9 s
PT Time (in seconds) at 25.8 nM anti-TF antibody [2]: 33.7 s
PT Time (in seconds) at 51.6 nM anti-TF antibody [2]: 82.1 s
B1: hOAT (humanized IgG One Anti-Tissue Factor antibody) (antibody, V domains shown)
VH: QIQLVQSGGEVKKPGASVRVSCKASGYSFTDYNVYWVRQSPGKGLEWIGYIDPYNGITIYDQNLKGKATLTVDKSTSTAYMELSSLRSEDTAVYFCARDVTTALDFWGQGTTVTVSS
VL: DIQMTQSPASLSASVGDRVTITCLASQTIDTWLAWYLQKPGKSPQLLIYAATNLADGVPSRFSGSGSGTDFSFTISSLQPEDFATYYCQQVYSSPFTFGQGTKLEIK

inhibition of TF function (PT assay) [1]: ~95%
PT Time (in seconds) at 12.9 nM anti-TF antibody [2]: 20.5 s
PT Time (in seconds) at 25.8 nM anti-TF antibody [2]: 41.7 s
PT Time (in seconds) at 51.6 nM anti-TF antibody [2]: 94.8 s
B2: hFAT (humanized IgG Four Anti-Tissue Factor antibody) (antibody, V domains shown)
VH: B1 VH
VL: B1 VL

inhibition of TF function (PT assay) [1]: ~95%
PT Time (in seconds) at 12.9 nM anti-TF antibody [2]: 19.8 s
PT Time (in seconds) at 25.8 nM anti-TF antibody [2]: 40 s
PT Time (in seconds) at 51.6 nM anti-TF antibody [2]: 101 s
B3: chimeric anti-tissue factor antibody cH36 (antibody, human IgG4, V domains shown)
VH: EIQLQQSGPELVKPGASVQVSCKTSGYSFTDYNVYWVRQSHGKSLEWIGYIDPYNGITIYDQNFKGKATLTVDKSSTTAFMHLNSLTSDDSAVYFCARDVTTALDFWGQGTTLTVSS
VL: DIQMTQSPASQSASLGESVTITCLASQTIDTWLAWYQQKPGKSPQLLIYAATNLADGVPSRFSGSGSGTKFSFKISSLQAEDFVNYYCQQVYSSPFTFGAGTKLELK
